Measurements published in publication PMC2562756.

Columns and labels:
[1] = molecular target: T1, DNA topoisomerase 1 (TOP1) (human, UniProt P11387 1-765); assay: EMSA
[2] = molecular target: T1, DNA topoisomerase 1 (TOP1); assay: competition
[3] = molecular target: T1, DNA topoisomerase 1 (TOP1); assay: competition; remark: listed apart in the source

T1 sequence (P11387 whole entry): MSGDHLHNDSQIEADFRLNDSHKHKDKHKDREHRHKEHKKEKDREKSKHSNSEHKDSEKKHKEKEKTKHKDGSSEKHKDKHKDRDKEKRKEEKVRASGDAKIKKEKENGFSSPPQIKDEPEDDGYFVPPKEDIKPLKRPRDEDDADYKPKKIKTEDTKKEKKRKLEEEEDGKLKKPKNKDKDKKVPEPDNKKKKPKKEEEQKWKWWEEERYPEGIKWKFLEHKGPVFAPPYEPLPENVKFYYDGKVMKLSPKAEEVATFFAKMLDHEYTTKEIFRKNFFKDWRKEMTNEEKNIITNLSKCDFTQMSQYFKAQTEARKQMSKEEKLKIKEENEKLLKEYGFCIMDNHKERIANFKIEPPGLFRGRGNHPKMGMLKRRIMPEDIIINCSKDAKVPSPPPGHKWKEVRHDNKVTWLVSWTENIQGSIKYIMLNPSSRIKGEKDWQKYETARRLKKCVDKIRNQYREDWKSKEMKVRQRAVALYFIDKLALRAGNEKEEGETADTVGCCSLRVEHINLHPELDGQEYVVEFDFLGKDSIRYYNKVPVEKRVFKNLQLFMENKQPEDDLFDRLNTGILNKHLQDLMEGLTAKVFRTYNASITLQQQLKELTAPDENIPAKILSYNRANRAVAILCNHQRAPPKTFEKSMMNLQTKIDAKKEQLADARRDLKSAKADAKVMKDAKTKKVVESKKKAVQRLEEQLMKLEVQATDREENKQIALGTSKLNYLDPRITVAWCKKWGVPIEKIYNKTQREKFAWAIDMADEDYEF

B1: 52-bp TOP1 substrate (dsDNA)
DNA 1: TCTAGAGGATTTCGAAGACTTAGAGAAATTTCGAAGATCCCCGGGCGAGCTC
DNA 2: GAGCTCGCCCGGGGATCTTCGAAATTTCTCTAAGTCTTCGAAATCCTCTAGA
- binding result [1]: binds

B2: 22-bp TOP1 binding sequence competitor (TOP1-BS) (dsDNA)
DNA 1: AAAAAGACTTGGAAAAATTTTT
DNA 2: AAAAATTTTTCCAAGTCTTTTT
- binding result [2]: binds

B3: 42-bp NF-kappaB binding sequence competitor (NF-kappaB-BS) (dsDNA)
DNA 1: GATCCAAGGGGACTTTCCATGGATCCAAGGGGACTTTCCATG
DNA 2: CATGGAAAGTCCCCTTGGATCCATGGAAAGTCCCCTTGGATC
- binding result [3]: no binding
